Source: PMC7617670, “Activity Regulation of a Glutamine Amidotransferase Bienzyme Complex by Substrate-Induced Subunit Interface Expansion” (ACS catalysis, 2025)

What was measured:
Experiment in all cases: ITC; 250 μM PabB titrated into 25 μM PabA in the cell; 25 °C; 50 mM Tris/HCl pH 7.5, 50 mM KCl, 5 mM MgCl2; without Cho and Gln; one set of sites
Settings in all cases: both partners purified
PabB variant bE119R = molecular target: T1, PabB variant bE119R (Escherichia coli, UniProt P05041 1-453, bE119R)
T1 construct: PabB, synthase subunit of ADCS, E. coli; construct as m2 with one exchange; Made by QuikChange mutagenesis from the construct of m2; source: E. coli BL21-Gold (DE3), purified (Ni-IMAC, preparative gel filtration)
T1 sequence: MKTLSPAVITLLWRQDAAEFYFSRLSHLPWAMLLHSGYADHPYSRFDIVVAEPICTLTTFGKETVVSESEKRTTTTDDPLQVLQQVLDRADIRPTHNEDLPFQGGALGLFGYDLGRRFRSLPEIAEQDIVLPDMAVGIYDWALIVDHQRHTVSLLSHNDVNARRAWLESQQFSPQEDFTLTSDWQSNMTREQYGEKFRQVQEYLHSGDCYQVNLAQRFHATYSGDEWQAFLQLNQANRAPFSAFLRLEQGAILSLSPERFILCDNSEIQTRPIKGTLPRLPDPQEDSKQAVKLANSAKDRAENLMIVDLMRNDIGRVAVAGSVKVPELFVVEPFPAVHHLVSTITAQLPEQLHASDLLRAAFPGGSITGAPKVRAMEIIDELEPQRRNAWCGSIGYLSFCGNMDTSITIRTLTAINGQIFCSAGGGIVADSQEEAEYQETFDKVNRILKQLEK

PabB variant bY210A = molecular target: T2, PabB variant bY210A (Escherichia coli, UniProt P05041 1-453, bY210A)
T2 construct: PabB, synthase subunit of ADCS, E. coli; construct as m2 with one exchange; Made by QuikChange mutagenesis from the construct of m2; source: E. coli BL21-Gold (DE3), purified (Ni-IMAC, preparative gel filtration)
T2 sequence: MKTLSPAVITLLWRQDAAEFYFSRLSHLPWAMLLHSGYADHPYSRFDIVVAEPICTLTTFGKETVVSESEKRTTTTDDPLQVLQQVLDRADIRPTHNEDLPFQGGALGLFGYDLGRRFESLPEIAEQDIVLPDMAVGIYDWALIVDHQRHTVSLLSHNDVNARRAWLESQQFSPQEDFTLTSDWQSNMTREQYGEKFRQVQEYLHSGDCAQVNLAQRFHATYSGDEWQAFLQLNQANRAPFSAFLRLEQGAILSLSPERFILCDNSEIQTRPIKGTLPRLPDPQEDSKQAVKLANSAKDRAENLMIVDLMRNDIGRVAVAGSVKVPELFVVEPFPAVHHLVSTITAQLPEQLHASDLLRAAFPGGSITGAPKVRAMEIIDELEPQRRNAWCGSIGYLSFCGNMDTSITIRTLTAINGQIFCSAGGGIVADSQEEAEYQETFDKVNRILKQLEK

[1] = molecular target: T3, PabB, synthase subunit of aminodeoxychorismate synthase (ADCS) from Escherichia coli, wild type (Escherichia coli, UniProt P05041 1-453)
T3 construct: PabB, synthase subunit of ADCS, E. coli; the gene was cloned into pET28a; Form used for SEC, ITC and kinetics; TEV cleavage is told only of the proteins used for crystallization; also called wt PabB; ADCS synthase subunit; source: E. coli BL21-Gold (DE3), purified (Ni-IMAC, preparative gel filtration)
T3 sequence: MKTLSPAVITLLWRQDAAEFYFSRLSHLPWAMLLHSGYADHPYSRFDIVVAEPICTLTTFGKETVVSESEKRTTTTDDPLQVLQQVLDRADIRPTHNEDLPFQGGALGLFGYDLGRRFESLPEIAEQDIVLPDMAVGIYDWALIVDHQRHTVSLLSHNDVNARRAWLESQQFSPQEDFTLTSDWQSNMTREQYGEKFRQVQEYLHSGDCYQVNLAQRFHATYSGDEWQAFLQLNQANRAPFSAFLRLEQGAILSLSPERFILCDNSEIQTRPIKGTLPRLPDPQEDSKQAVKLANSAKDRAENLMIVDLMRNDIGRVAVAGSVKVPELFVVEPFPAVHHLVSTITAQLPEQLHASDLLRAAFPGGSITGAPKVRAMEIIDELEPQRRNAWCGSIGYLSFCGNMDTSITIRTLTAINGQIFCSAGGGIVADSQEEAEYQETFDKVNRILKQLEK

PabB variant bD308E = molecular target: T4, PabB variant bD308E (Escherichia coli, UniProt P05041 1-453, bD308E)
T4 construct: PabB, synthase subunit of ADCS, E. coli; construct as m2 with one exchange; Made by QuikChange mutagenesis from the construct of m2; source: E. coli BL21-Gold (DE3), purified (Ni-IMAC, preparative gel filtration)
T4 sequence: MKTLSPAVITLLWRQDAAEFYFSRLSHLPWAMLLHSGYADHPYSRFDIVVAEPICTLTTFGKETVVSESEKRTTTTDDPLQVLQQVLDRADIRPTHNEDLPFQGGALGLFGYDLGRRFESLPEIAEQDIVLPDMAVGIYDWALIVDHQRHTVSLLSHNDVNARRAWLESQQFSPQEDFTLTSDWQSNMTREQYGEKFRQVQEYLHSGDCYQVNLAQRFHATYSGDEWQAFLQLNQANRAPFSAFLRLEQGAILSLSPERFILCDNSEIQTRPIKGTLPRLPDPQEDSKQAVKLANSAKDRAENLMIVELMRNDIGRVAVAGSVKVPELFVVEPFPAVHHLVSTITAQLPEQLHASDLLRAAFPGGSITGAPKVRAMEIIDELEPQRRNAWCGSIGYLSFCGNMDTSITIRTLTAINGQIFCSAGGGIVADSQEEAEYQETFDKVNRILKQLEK

B1: PabA, glutaminase subunit of aminodeoxychorismate synthase (ADCS) from Escherichia coli, wild type (enzyme)
chain: MILLIDNYDSFTWNLYQYFCELGADVLVKRNDALTLADIDALKPQKIVISPGPCTPDEAGISLDVIRHYAGRLPILGVCLGHQAMAQAFGGKVVRAAKVMHGKTSPITHNGEGVFRGLANPLTVTRYHSLVVEPDSLPACFDVTAWSETREIMGIRHRQWDLEGVQFHPESILSEQGHQLLANFLHR
notes: PabA, class I glutaminase subunit of ADCS, E. coli; the gene was cloned into pET28a; Form used for SEC, ITC and kinetics; TEV cleavage is told only of the proteins used for crystallization; The G5H-Tag stands between the TEV site and the start methionine of PabA; also called wt PabA; ADCS glutaminase subunit; source: E. coli BL21-Gold (DE3), purified (Ni-IMAC, preparative gel filtration)
Work on B1 yielded a Kd (PabB variant bE119R) of 540 nM, a Kd (PabB variant bY210A) of 5500 nM and a Kd [1] of 160 nM. For the same binder, the Kd (PabB variant bD308E) was 1700 nM.
